Data taken from patent US20200173986A1.

Target: endogenous SNAP25 in total cell lysate
Test: sandwich ELISA with total cell lysate, fusion supernatant

Chain of endogenous SNAP25 in total cell lysate (P60879 whole entry, the tested form may be a part): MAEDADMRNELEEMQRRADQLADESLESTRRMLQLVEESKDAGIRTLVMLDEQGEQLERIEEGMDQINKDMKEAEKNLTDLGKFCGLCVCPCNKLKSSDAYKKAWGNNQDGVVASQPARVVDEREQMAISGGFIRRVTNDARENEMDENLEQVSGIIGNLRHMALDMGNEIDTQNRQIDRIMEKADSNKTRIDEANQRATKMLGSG

B1: B4 IgG (antibody, V domains shown)
VH: EVKLVESGGGLVKPGGSLKLSCAASGFTFSNYGMSWVRQTPEKRLEWVATISSGGSYTYYPDSVKGRFTISRDNAKNTLYLQMSSLRSEDTAMYYCARHEGGGNPYFDYWGQGTTLTVSS
VL: DVLMTQTPLSLPVSLGDQASISCRSSQSLVHSNGNTYLHWYLQKPGQSPKLLIYKVSNRFSGVPDRFSGSGSGTDFTLKISRVEAEDLGVYFCSQNTLVPWTFGGGTKLEIK
  ELISA signal (A450): 0.1
